{"source": "patent US20240101640A1", "about": "(CSL BEHRING, published 2024)", "binders": {"B1": {"name": "heme-hemopexin complex (human plasma derived hemopexin saturated with hemin) (ligand)", "chain": "TPLPPTSAHGNVAEGETKPDPDVTERCSDGWSFDATTLDDNGTMLFFKGEFVWKSHKWDRELISERWKNFPSPVDAAFRQGHNSVFLIKGDKVWVYPPEKKEKGYPKLLQDEFPGIPSPLDAAVECHRGECQAEGVLFFQGDREWFWDLATGTMKERSWPAVGNCSSALRWLGRYYCFQGNQFLRFDPVRGEVPPRYPRDVRDYFMPCPGRGHGHRNGTGHGNSTHHGPEYMRCSPHLVLSALTSDNHGATYAFSGTHYWRLDTSRDGWHSWPIAHQWPQGPSAVDAAFSWEEKLYLVQGTQVYVFLTKGGYTLVSGYPKRLEKEVGTPHGIILDSVDAAFICPGSSRLHIMAGRRLWWLDLKSGAQATWTELPWPHEKVDGALCMEKSLGPNSCSANGPGLYLIHGPNLYCYSDVEKLNAAKALPQPQNVTSLLGCTH", "modifications": "heme (hemin) bound non-covalently in a 1:1 ratio", "notes": "also called heme-hpx complex; heme-hx complex"}}, "key": {"[1]": {"target": "T1, HuLRP1(1-24)-FLAG-HuLRP1(2481-2942)-8His (huLRP1 soluble minireceptor, ligand binding domain III) (human, UniProt Q07954 2481-2942)", "T1 construct": "Made in ExpiCHO-S cells; also called LRP1.3; LRP1 domain III", "T1 sequence (Q07954 other isoform, or with tags, fused parts or gaps)": "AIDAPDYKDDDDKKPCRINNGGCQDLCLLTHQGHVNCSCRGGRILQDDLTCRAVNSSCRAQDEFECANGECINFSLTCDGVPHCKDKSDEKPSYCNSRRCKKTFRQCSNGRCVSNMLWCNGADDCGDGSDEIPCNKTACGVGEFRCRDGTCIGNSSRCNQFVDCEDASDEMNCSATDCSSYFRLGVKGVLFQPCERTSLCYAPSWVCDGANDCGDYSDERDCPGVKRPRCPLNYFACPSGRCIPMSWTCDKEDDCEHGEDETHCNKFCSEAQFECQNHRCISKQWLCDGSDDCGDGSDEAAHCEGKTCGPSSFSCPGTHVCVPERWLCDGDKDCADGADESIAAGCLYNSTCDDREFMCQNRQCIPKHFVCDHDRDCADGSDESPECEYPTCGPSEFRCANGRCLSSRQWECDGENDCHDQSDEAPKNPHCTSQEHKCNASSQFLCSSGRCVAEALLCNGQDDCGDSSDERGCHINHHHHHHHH", "assay": "SPR, LRP1.3 tethered on NTA chip, heme-hpx complex batch TO341022BM (“New”), 1:1 steady state fit, N = 1"}, "[2]": {"target": "T1, HuLRP1(1-24)-FLAG-HuLRP1(2481-2942)-8His …", "assay": "SPR, LRP1.3 tethered on NTA chip, heme-hpx complex batch TO342022B (“Aged”), 1:1 steady state fit, N = 1", "method": "(§1) Heme-hpx complex was injected in duplicate at concentrations ranging from 0.62 to 20 μM in 2-fold dilution series over 30 seconds. The dissociation was monitored for 60 seconds. No regeneration step was required between cycles since the complex dissociated fully. Sensogram data from active surface (flow cell 4) were double referenced by subtraction of data from reference surface (flow cells 3) and blank injections. Sensogram data were fit to a 1:1 steady state model."}, "[3]": {"target": "T1, HuLRP1(1-24)-FLAG-HuLRP1(2481-2942)-8His …", "assay": "SPR, LRP1.3 tethered on NTA chip, heme-hpx complex batch T0342022C as printed, 1:1 steady state fit, N = 1"}, "[4]": {"target": "T1, HuLRP1(1-24)-FLAG-HuLRP1(2481-2942)-8His …", "assay": "SPR, LRP1.3 tethered on NTA chip (capture cross link), heme-hpx (batch TO411122), 1:1 steady state fit, mean of N = 3"}, "[5]": {"target": "T1, HuLRP1(1-24)-FLAG-HuLRP1(2481-2942)-8His …", "assay": "SPR, LRP1.3 tethered on NTA chip (capture cross link), heme-hpx (batch TO411122) 0.62-20 µM, 1:1 steady state fit, run 1", "method": "as §1"}, "[6]": {"target": "T1, HuLRP1(1-24)-FLAG-HuLRP1(2481-2942)-8His …", "assay": "SPR, LRP1.3 tethered on NTA chip (capture cross link), heme-hpx (batch TO411122) 0.62-20 µM, 1:1 steady state fit, run 2", "method": "as §1\n(§2) In a next step and as mentioned above an alternative assay setup was developed as illustrated in FIG. 7A."}, "[7]": {"target": "T1, HuLRP1(1-24)-FLAG-HuLRP1(2481-2942)-8His …", "assay": "SPR, LRP1.3 tethered on NTA chip (capture cross link), heme-hpx (batch TO411122) 0.62-20 µM, 1:1 steady state fit, run 3", "method": "as §1, §2"}, "[8]": {"target": "T1, HuLRP1(1-24)-FLAG-HuLRP1(2481-2942)-8His …", "assay": "BLI (OctetRED96, 30 °C), LRP1.3 captured on anti-penta-His biosensor, heme-hpx (batch TO294001) 2.5-0.312 µM, global 1:1 fit", "method": "(§3) Individual LRP1 domains were immobilized on the biosensor surface. After baseline recording four concentration of heme-hpx complexes were tested (2.5, 1.25, 0.625 and 0.312 μM). For LRP1.3 the reference subtracted and processed kinetic dataset was globally fitted using a 1:1 binding model. Heme-hpx is shown in red curves, fitted curve as solid black line. LRP1.1, LRP1.2, LRP1.4 and LRP1.5 were not fitted.\nAs described above, anti-penta His antibody pre-coated biosensors (Cat N°: 18-5120, ForteBio, TechNote 43: Anti-Penta-HIS (HIS1K) biosensors for label-free analysis of HIS-tagged proteins, 2019) were used. The different LRP1 domains were immobilized at a concentration of 15 μg/mL in 10× kinetic buffer (PBS, 0.1% BSA, 0.02% Tween20). Heme-Hpx complex was diluted in 10× kinetic buffer (PBS, 0.1% BSA, 0.02% Tween20). The association and dissociation kinetics of heme-hemopexin complex, were performed at concentrations of 2.5, 1.25, 0.625 and 0.3125 μM. A reference control was included in every experiment (sensor loaded with ligand without analyte). Data was acquired on an OctetRED96 (FortéBio) at 30° C. with the following settings: […]"}, "[9]": {"target": "T2, HuLRP1(1-24)-FLAG-HuLRP1(3293-3783)-8His (huLRP1 soluble minireceptor, ligand binding domain IV) (human, UniProt Q07954 3293-3783)", "T2 construct": "also called LRP1.4; LPR1 domain IV", "T2 sequence (Q07954 other isoform, or with tags, fused parts or gaps)": "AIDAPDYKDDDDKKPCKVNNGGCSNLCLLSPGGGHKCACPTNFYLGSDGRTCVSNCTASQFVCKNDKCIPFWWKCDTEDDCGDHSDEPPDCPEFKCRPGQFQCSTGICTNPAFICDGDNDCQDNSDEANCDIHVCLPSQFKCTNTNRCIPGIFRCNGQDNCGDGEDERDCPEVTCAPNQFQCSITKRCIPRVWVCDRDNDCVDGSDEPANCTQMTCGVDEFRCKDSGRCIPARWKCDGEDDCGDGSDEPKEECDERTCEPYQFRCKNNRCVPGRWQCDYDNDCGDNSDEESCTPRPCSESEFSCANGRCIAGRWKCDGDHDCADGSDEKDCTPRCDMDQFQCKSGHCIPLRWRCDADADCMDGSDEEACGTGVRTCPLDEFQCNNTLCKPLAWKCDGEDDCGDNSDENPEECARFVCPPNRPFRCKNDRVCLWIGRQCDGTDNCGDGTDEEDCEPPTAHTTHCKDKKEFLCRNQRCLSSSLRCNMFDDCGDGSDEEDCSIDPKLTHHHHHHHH", "assay": "BLI (Octet), LRP1.4 captured on anti-Penta-His biosensor, heme-hpx complex as analyte at 0.312-2.5 µM [LRP1.4]", "method": "as §3\n(§4) As described above, anti-penta His antibody pre-coated biosensors (Cat N°: 18-5120, ForteBio, TechNote 43: Anti-Penta-HIS (HIS1K) biosensors for label-free analysis of HIS-tagged proteins, 2019) were used. The different LRP1 domains were immobilized at a concentration of 15 μg/mL in 10× kinetic buffer (PBS, 0.1% BSA, 0.02% Tween20). Heme-Hpx complex was diluted in 10× kinetic buffer (PBS, 0.1% BSA, 0.02% Tween20). The association and dissociation kinetics of heme-hemopexin complex, were performed at concentrations of 2.5, 1.25, 0.625 and 0.3125 μM. A reference control was included in every experiment (sensor loaded with ligand without analyte). Data was acquired on an OctetRED96 (FortéBio) at 30° C. with the following settings:\n(§5) To investigate and determine, which of the LRP1 domains bind the heme-hpx complex, each of the domains were tethered on biosensors (HIS1K; anti-penta-His) via the expressed His-tag."}, "[10]": {"target": "T3, HuLRP1 (3332-3779)-8His (second ligand binding domain IV construct) (human, UniProt Q07954 3332-3779)", "T3 construct": "Any N-terminal residues left from a signal peptide or tag are not described; also called LRP1.5; LPR1 domain IV (LRP1.5)", "T3 sequence (Q07954 other isoform, or with tags, fused parts or gaps)": "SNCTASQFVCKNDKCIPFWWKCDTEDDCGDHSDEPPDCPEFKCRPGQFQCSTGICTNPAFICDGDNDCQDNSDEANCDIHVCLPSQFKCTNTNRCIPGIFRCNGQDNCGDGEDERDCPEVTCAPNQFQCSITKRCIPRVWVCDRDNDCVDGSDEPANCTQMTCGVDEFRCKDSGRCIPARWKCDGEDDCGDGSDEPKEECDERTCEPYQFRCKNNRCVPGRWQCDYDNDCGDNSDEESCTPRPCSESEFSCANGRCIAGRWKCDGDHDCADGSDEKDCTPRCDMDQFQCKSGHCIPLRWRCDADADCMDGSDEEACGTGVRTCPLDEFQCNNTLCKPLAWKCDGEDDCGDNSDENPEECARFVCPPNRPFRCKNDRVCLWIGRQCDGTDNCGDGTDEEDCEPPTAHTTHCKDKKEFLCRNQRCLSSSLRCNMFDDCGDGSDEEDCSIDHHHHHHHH", "assay": "BLI (Octet), LRP1.5 captured on anti-Penta-His biosensor, heme-hpx complex as analyte at 0.312-2.5 µM [LRP1.5]", "method": "as §3, §4, §5"}, "[11]": {"target": "T1, HuLRP1(1-24)-FLAG-HuLRP1(2481-2942)-8His …", "assay": "SPR (Biacore), LRP1.3 tethered on NTA chip, heme-hpx complex batch TO411122 (as titled on the sheet) as analyte at 0.62-20 µM, steady state 1:1 fit", "method": "as §1"}, "[12]": {"target": "T1, HuLRP1(1-24)-FLAG-HuLRP1(2481-2942)-8His …", "assay": "SPR (Biacore), LRP1.3 tethered on NTA chip, heme-hpx complex (\"new\", batch TO341022BM by the legend) as analyte at 0.62-20 µM, steady state 1:1 fit", "method": "as §1"}, "[13]": {"target": "T1, HuLRP1(1-24)-FLAG-HuLRP1(2481-2942)-8His …", "assay": "SPR (Biacore), LRP1.3 tethered on NTA chip, heme-hpx complex (\"aged\", batch TO342022B by the legend) as analyte at 0.62-20 µM, steady state 1:1 fit", "method": "as §1"}, "[14]": {"target": "T1, HuLRP1(1-24)-FLAG-HuLRP1(2481-2942)-8His …", "assay": "SPR (Biacore, 37 °C), heme-hpx (batch TO411122) captured by anti-hemopexin polyclonal antibody on CM5, LRP1.3 0.312-20 µM as analyte, kinetic fit (not optimal)"}, "[15]": {"target": "B1", "assay": "BLI (Octet), LRP1.1 captured on anti-Penta-His biosensor, heme-hpx complex as analyte at 0.312-2.5 µM [LRP1.1]", "method": "as §3, §4, §5"}, "[16]": {"target": "B1", "assay": "BLI (Octet), LRP1.2 captured on anti-Penta-His biosensor, heme-hpx complex as analyte at 0.312-2.5 µM [LRP1.2]", "method": "as §3, §4, §5"}}}
{"binder": "B1", "values": [{"measurement": "Kd", "setting": "[1]", "result": 1410, "unit": "nM"}, {"measurement": "Kd", "setting": "[2]", "result": 1350, "unit": "nM"}, {"measurement": "Kd", "setting": "[3]", "result": 1340, "unit": "nM"}, {"measurement": "Kd", "setting": "[4]", "result": 2620, "unit": "nM"}, {"measurement": "Kd", "setting": "[5]", "result": 2620, "unit": "nM"}, {"measurement": "Kd", "setting": "[6]", "result": 2610, "unit": "nM"}, {"measurement": "Kd", "setting": "[7]", "result": 2630, "unit": "nM"}, {"measurement": "Kd", "setting": "[8]", "result": 1460, "unit": "nM"}, {"measurement": "koff", "setting": "[8]", "result": 0.0555, "unit": "s⁻¹"}, {"measurement": "kon", "setting": "[8]", "result": 37900, "unit": "M⁻¹ s⁻¹"}, {"measurement": "binding result", "setting": "[9]", "result": "no binding (tested: 2.5 µM heme-hpx complex)"}, {"measurement": "binding result", "setting": "[10]", "result": "no binding (tested: 2.5 µM heme-hpx complex)"}, {"measurement": "Kd", "setting": "[11]", "result": 1400, "unit": "nM"}, {"measurement": "Kd", "setting": "[12]", "result": 1400, "unit": "nM"}, {"measurement": "Kd", "setting": "[13]", "result": 1400, "unit": "nM"}, {"measurement": "Kd", "setting": "[14]", "result": "~2000", "unit": "nM"}]}
{"binder": "HuLRP1(1-24)-FLAG-HuLRP1(25-113)-8His (huLRP1 soluble minireceptor, ligand binding domain I) (receptor, also called LPR1 domain I; LRP1 domain 1) AIDAPDYKDDDDKKKTCSPKQFACRDQITCISKGWRCDGERDCPDGSDEAPEICPQSKAQRCQPNEHNCLGTELCVPMSRLCNGVQDCMDGSDEGPHCRELQGHHHHHHHH", "values": [{"measurement": "binding result", "setting": "[15]", "result": "no binding (tested: 2.5 µM heme-hpx complex)"}]}
{"binder": "HuLRP1(1-24)-FLAG-HuLRP1(806-1183)-8His (huLRP1 soluble minireceptor, ligand binding domain II) (receptor, also called LRP1.2; LPR1 domain II) AIDAPDYKDDDDKKKCRVNNGGCSSLCLATPGSRQCACAEDQVLDADGVTCLANPSYVPPPQCQPGEFACANSRCIQERWKCDGDNDCLDNSDEAPALCHQHTCPSDRFKCENNRCIPNRWLCDGDNDCGNSEDESNATCSARTCPPNQFSCASGRCIPISWTCDLDDDCGDRSDESASCAYPTCFPLTQFTCNNGRCININWRCDNDNDCGDNSDEAGCSHSCSSTQFKCNSGRCIPEHWTCDGDNDCGDYSDETHANCTNQATRPPGGCHTDEFQCRLDGLCIPLRWRCDGDTDCMDSSDEKSCEGVTHVCDPSVKFGCKDSARCISKAWVCDGDNDCEDNSDEENCESLACRPPSHPCANNTSVCLPPDKLCDGNDDCGDGSDEGELCDHHHHHHHH", "values": [{"measurement": "binding result", "setting": "[16]", "result": "no binding (tested: 2.5 µM heme-hpx complex)"}]}
